Assay results taken from PMC4626089, “In Vitro Mutational Analysis of the β2 Adrenergic Receptor, an In Vivo Surrogate Odorant Receptor” (PLoS ONE, 2015).

Test: GFP-labeled filopodia count per OP6 cell
Details: glycan lost; control: WT mβ2AR::GFP

With “mouse β2-adrenergic-receptor (mβ2AR): No-NxS” the “localisation_or_trafficking, other: GFP-labeled filopodia per cell” value was “no change, 13.6 ±8.3 vs 31.8 ±16.2”.
